Here are results for one variant from IntAct's records for PubMed 32514408.

The chains are these.
B1: TNF receptor-associated factor 3 (Homo sapiens), Q13114 (parent)
chain: MESSKKMDSPGALQTNPPLKLHTDRSAGTPVFVPEQGGYKEKFVKTVEDKYKCEKCHLVLCSPKQTECGHRFCESCMAALLSSSSPKCTACQESIVKDKVFKDNCCKREILALQIYCRNESRGCAEQLMLGHLLVHLKNDCHFEELPCVRPDCKEKVLRKDLRDHVEKACKYREATCSHCKSQVPMIALQKHEDTDCPCVVVSCPHKCSVQTLLRSELSAHLSECVNAPSTCSFKRYGCVFQGTNQQIKAHEASSAVQHVNLLKEWSNSLEKKVSLLQNESVEKNKSIQSLHNQICSFEIEIERQKEMLRNNESKILHLQRVIDSQAEKLKELDKEIRPFRQNWEEADSMKSSVESLQNRVTELESVDKSAGQVARNTGLLESQLSRHDQMLSVHDIRLADMDLRFQVLETASYNGVLIWKIRDYKRRKQEAVMGKTLSLYSQPFYTGYFGYKMCARVYLNGDGMGKGTHLSLFFVIMRGEYDALLPWPFKQKVTLMLMDQGSSRRHLGDAFKPDPNSSSFKKPTGEMNIASGCPVFVAQTVLENGTYIKDDTIFIKVIVDTSDLPDP
partner: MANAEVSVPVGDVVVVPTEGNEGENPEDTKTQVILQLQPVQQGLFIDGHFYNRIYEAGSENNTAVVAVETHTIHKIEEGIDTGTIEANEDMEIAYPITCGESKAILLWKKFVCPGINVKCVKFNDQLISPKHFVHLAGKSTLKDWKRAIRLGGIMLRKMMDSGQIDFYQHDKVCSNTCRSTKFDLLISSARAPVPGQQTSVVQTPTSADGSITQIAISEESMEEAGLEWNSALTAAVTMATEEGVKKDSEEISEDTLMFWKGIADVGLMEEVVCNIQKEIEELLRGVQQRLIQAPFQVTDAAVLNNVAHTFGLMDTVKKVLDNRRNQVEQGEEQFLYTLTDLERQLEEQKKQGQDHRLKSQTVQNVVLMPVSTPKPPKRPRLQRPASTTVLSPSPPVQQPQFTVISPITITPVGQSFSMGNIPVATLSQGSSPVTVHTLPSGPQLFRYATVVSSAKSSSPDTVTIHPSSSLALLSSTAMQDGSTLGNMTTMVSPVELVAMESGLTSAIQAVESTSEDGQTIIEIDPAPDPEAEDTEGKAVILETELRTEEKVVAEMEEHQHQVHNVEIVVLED

The test covers variants of B1. To be noted: with gmeb1_human GMEB1, Q9Y692.
Consider MESSKKMDSPGALQTNPPLKLHTDRSAGTPVFVPEQGGYKEKFVKTVEDKYKAEKAHLVLCSPKQTECGHRFCESCMAALLSSSSPKCTACQESIVKDKVFKDNCCKREILALQIYCRNESRGCAEQLMLGHLLVHLKNDCHFEELPCVRPDCKEKVLRKDLRDHVEKACKYREATCSHCKSQVPMIALQKHEDTDCPCVVVSCPHKCSVQTLLRSELSAHLSECVNAPSTCSFKRYGCVFQGTNQQIKAHEASSAVQHVNLLKEWSNSLEKKVSLLQNESVEKNKSIQSLHNQICSFEIEIERQKEMLRNNESKILHLQRVIDSQAEKLKELDKEIRPFRQNWEEADSMKSSVESLQNRVTELESVDKSAGQVARNTGLLESQLSRHDQMLSVHDIRLADMDLRFQVLETASYNGVLIWKIRDYKRRKQEAVMGKTLSLYSQPFYTGYFGYKMCARVYLNGDGMGKGTHLSLFFVIMRGEYDALLPWPFKQKVTLMLMDQGSSRRHLGDAFKPDPNSSSFKKPTGEMNIASGCPVFVAQTVLENGTYIKDDTIFIKVIVDTSDLPDP [C53A;C56A], for which the “effect of a mutation on the interaction” value is recorded as “with no effect”.
